Results as given in US20220152108A1.

Target: sodium taurocholate co-transporting receptor (NTCP), expressed on HepG2 cells (human) (UniProt Q14973)
Test: cell-based or functional assay

UniProt Q14973, sequence (Q14973 whole entry): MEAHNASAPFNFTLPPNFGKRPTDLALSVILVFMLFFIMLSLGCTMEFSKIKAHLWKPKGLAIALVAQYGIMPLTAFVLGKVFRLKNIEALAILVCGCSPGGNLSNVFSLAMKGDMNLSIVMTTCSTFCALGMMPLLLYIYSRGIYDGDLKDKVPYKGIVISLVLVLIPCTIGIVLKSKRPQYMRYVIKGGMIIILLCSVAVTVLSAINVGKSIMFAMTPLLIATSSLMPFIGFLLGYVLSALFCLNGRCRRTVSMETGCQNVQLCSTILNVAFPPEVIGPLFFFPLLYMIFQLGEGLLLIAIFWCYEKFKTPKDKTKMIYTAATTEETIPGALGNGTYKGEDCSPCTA

With “CAR-PreS1 construct (signal peptide-PreS1-CD8 hinge-CD8 Transmembrane-CD28-4-1BB-CD3zeta-T2A-EGFP), expressed on T cells” the IFN gamma expression of CAR-PreS1 T cells co-cultured with HepG2 cells expressing or lacking NTCP was 3 fold and the degranulation (CD107a expression) of CAR-PreS1 T cells co-cultured with HepG2 cells expressing or lacking NTCP was 2 fold.
